Drawing on a protein production outcome set (Wang et al. 2014), this text covers protein production for 20 sequences.

A short description of this data set: label from the status in PepcDB records.
With “MFLSAASSIIYLLLFFIASLIILVFSSDAFFDNAVPMFRSRGIGDMYAGTIFVGFASVLDEIALSASSLIFRHPEIGIGAVEGSNLITMAFFTVIVAVSYLEVAGEFTLDMIVILVLTILSMVFAEIFVHIPWFYSIALFVPFVVYLVIKAGGSKEAGYGPQEYSNIVLIVSFFLIFLSSDTLVRSTIGIASYTGINLVDLSAYGIGMVSSFPEIIMILVSLRGGRKVVSMGIFTGSTVYKMSLIPGIIIVSEPTGFSDIFYMLLAILVMSLLVLFLGIMSRKSQGRSNIH”, the protein production entry is given as “failed”.
Then “MAHIEKVPQRPGFSWRYRRIDEVEKEYDLHFHDDVFELVIHRHFTGSLHIGHHELEVTHNQMLLIAPGVPHSIHSTLVESKCETHVIWFKREWIANLMFYCAELRKLDPLLKAANKGVVFSERTAQHVVDLLHELMTFPAMEQLSRFLHVLSLIAHDEGAKTLMTHSYLSMSEHELQERERVASVNAYLEQHFATKVTLADLANYLSLSESAVTRLFQKHFKEPFSQRLMKLRINHAADLLQSTSLPIGIVFERVGYRNQALFNRHFKTYKGLTPRDYRQHYQQRIQP”, with “failed”.
To “MPKLTKRILDAAGARPTPYFLWCSDLKGFGVRIFPSGRRVYYADYRTAAGMRRRMSLGEHGKLTVDEARRLAITTLGDVIRGDDPIEERVTRRKSLTIAELCRRYLEAAGAGLVLGRGRKPKKATTLVSDRGRIEHHIVPLLGSRLVRDLTTAEVQRFVRDVQAGRTAKRYKTKARGMVLVEGGAGAAARTAGLLGGIMSYAIGEGVIALNPVRGVKRPADRKKDRRLSPEEYRALGRVLAEAEGDRESWQAVSSIQLLCLTGCRMREIANLRWTEVDFAGRCLRLDNTKEGRSIRPLGQAAVALLRQIEERRAGPYVLPATRGEGGFGGIPDAIERYSKRAGLPGIGAHTLRHSFASTAADLGCSDSTIGAMLGHAGHGVTSRYIHHLDAVLIMAADRVTTAMAGWLKDRYAERLEPAYPASRTVPLS” belongs “failed”.
With “MVSRLEHPAGGYKKVFESCEELAEPIPAHVSGKIPAWLSGSLLRMGPGLFEIGDEPFNHLFDGQALIHKFDLKDGRVTYHRKFIRTDAYVRAMTEKRVVITELGTAAYPDPCKNIFSRFFTYFQGTEVTDNCSVNIYPIGEDFYACTETNFITKVNPDTLETIKKVDLCNYLSVNGLTAHPHIEADGTVYNIGNCFGKNMSLAYNIVKIPPLQEEKSDPLAMSKVLVQFPSSERFKPSYVHSFGMTENHFVFVETPVKINLLKFLTSWSIRGSNYMDCFESNDRMGTWFHLAAKNPGKYINNPSQ”, the protein production entry is listed as “failed”.
Regarding “MAQFLRRFSSSPMANEDEFQSPVEPSQQQSQDCVSESYLIGFVIANIVGLKYYSGRINGREMVGLVREPLNVYDNNAIRVLNTRSEQVGHIERTVAAVLAPMIDSHTIVVEGIVPNTRSNSNRYRIPCQIHVFAKLEASSTVKSTISRGGLVLISESDTSFGLSEAVVVKEQMGNGDKRSVDKIFKLVDENVKLMGKLVAAEPPREVIKSELFAHQKEGLGWLLHREKSGELPPFWEEKDGEFLNTLTNYRSDKRPDPLRGGVFADDMGLGKTLTLLSLIAFDRYGNASTSTPTEEPLDGEGDKIEKKGKKRGRGKSSESVTRKKLKTDDVVGMNVSQKTTLIVCPPSVISAWITQLEEHTVPGILKVYMYHGGERTDDVNELMKYDIVLTTYGTLAVEESWEDSPVKKMEWLRIILDEAHTIKNANAQQSRVVCKLKASRRWAVTGTPIQNGSFDLYSLMAFLRFEPFSIKSYWQSLIQRPLGQGNKKGLSRLQVLMATISLRRTKEKSLIGLPPKTVETCYVELSPEERQLYDHMEGEAKGVVQNLINNGSLMRNYSTVLSIILRLRQLCDDMSLCPPELRSFTTSTSVEDVTDKPELLQKLVAALQDGEDFDCPICISPPTNIIITRCAHIFCRACILQTLQRSKPLCPLCRGSLTQSDLYNAPPPPPDSSNTDGEDAKSSTKSSKVSALLSLLMASRQENPNTKSVVFSQFRKMLLLLETPLKAAGFTILRLDGAMTVKKRTQVIGEFGNPELTGPVVLLASLKASGTGINLTAASRVYLFDPWWNPAVEEQAMDRIHRIGQKQEVKMIRMIARNSIEERVLELQQKKKNLANEAFKRRQKKDEREVNVEDVVALMSL”, the protein production result is “failed”.
For the sequence “MSRDEVLTRMRRFGPLAVVAVLCAAAFASGLVEHISLEELRLRGTQLQAFAHENPLLCAAIYLAVYVGTVAISLPGALILSLTGGFLFGPIGGGLAAVTGATGGSTVTFLVFRTAFGEALPFKSSAFIARIAEGLKGDAFNYLLTLRLIPAFPLLAVNVAAGVMNVRVRTFLLASVLGMIPSSFVYAGIGAGLGHVFAKGGPVTVESLLSPRIYLPIIGMGVLAFLPPLWRHWRNGRDVASLDEK”, the protein production entry is “failed”.
Regarding “MFITTEGINAGYTIKDVVEATSSLMLASEDIDKYNMFDQLFDEAKQKLKKKADLLEGDGIIGLKYNTEVVEVNGAPKFLVVHGYGTVILIDK”, the protein production result was “not failed”.
As to “AYGLTFEAPKGILVEEDTEETFLLNNSRFYITIQSLDSDGMTKSDLKSVLKDYANDDGVKDQSAVQEFELPQFFGTYLKGSCETDHCLYACLMTKAAGSGFYISIIYSKENENIAEKILKSFTMEE”, the protein production result is recorded as “not failed”.
On to “MEKDLLDKLGQHLVWRMGRAEDEDVLVVRVGLASATPRFRELPRLLNLPEAEMRRLVQEGRVRVEWVEE”, for which the protein production result is “not failed”.
In the case of “MADKEKKKKESILDLSKYIDKTIRVKFQGGREASGILKGFDPLLNLVLDGTIEYMRDPDDQYKLTEDTRQLGLVVCRGTSVVLICPQDGMEAIPNPFIQQQDA”, the protein production entry is listed as “failed”.
For the sequence “MVLYIILAIIVIILIAVGVLFYLRSNKRQIIEKAIERKNEIETLPFDQNLAQLSKLNLKGETKTKYDAMKKDNVESTNKYLAPVEEKIHNAEALLDKFSFNASQSEIDDANELMDSYEQSYQQQLEDVNEIIALYKDNDELYDKCKVDYREMKRDVLANRHQFGEAASLLETEIEKFEPRLEQYEVLKADGNYVQAHNHIAALNEQMKQLRSYMEEIPELIRETQKELPGQFQDLKYGCRDLKVEGYDLDHVKVDSTLQSLKTELSFVEPLISRLELEEANDKLANINDKLDDMYDLIEHEVKAKNDVEETKDIITDNLFKAKDMNYTLQTEIEYVRENYYINESDAQSVRQFENEIQSLISVYDDILKEMSKSAVRYSEVQDNLQYLEDHVTVINDKQEKLQNHLIQLREDEAEAEDNLLRVQSKKEEVYRRLLASNLTSVPERFIIMKNEIDHEVRDVNEQFSERPIHVKQLKDKVSKIVIQMNTFEDEANDVLVNAVYAEKLIQYGNRYRKDYSNVDKSLNEAERLFKNNRYKRAIEIAEQVLESVEPGVTKHIEEEVIKQ”, the protein production result is listed as “failed”.
Then “MRLIRSVLCSSSAGFGQGFCSPSLRRHLSARFPRGHGNALANFSSCARSRVHAYSSASSATSVGVPVAKMRFIDIGANLLDEMYTGQYNDKPYHPPDLSAVLERAWAAGLEKLMITAGSLKEARAALELAKTDERLYCTVGCHPTRCKEFEDHPGGPEAYLQELLEVLKEGQALGKVVAVGECGLVATDYERLHFCDADTQKKYFEAQFRLAKESGLPMFLHLRAAADDFLDITGRHLGDFPRGGVVHSFDGTAEEAARVLAVPQLAIGINGCSLKTDDNLAVVGGLPLERIMLETDCPWCEIRPTHAGRKHVSAEALAGVTGAKDRKKFMPGCQVKSRNEPANIRQVLEVVAGVKGRTDLEAVADVIFGNTERMFFPTA”, with “failed”; and “MELSINILNIIGILLEIGVSIYIIISEKKKSKNRNSEAENDLIQQTNNIINNTQGDNASFNYTNVLMQSKYQERAYREILNDLGDKKENKQKSKYGKKCSYLRKVINIVCLGIGGFWAFYYFDLMKITSFNTYLLNVLFQTIYTLATFILIFSLSNFVKLFLIHFKEYNYIVLRKIQLFLTTLFALLGATIWLYFDWRANFRPLFNMYTESSYYTLGIIMLGLVFYVFHQMAQSFLLNNIWVPKKAVKILFVSLIFSLIASICLFI”, with “failed”.
Then “MSHEVDELFDAEMLQQAKTLSAFMSVNSERLPEAGVIIESIGAHNYEDKLSYRIENTEELLLMQTEGAPDASAFEFIPGFSVKRVKDELWHAFGLENATGQRILMLQEDGFRSELRMDLTVDTVIPILLILPFMLWLGWWTINRNFSSFNRLAGELRRKRADDYTNFVEDNDREEVALVKRSLNHYINRIEQTFLREKRFSADAAHELRTPLASLKAQIQSRLGSATSEQQNELQPLLDSTERLVKLVESLLQLSKAELPPEQLKQVNVASVLRQVLADQYVAAESKGLSYHAQLPTVFQQTSDESYLYLLFANALDNAIKYAVPGSHIGIEVTENQIFVCNRVAADHVIDIDRITERFYRGKQLDVEGSGLGLSIVRNLAEQLGVQINFRHIDDEFCFIVTFDTDQ”, with “failed”.
Then “MVQQSEVRQMKHSVSTLNQEMTQLNQETVKITQQNRLNAKSSSGVYLLPGAKTPARLESQIGTLRMSLVNITPDADGTTLTLRIQGESNDPLPAFSGTVEYGQIQGTIDNFQEINVQNQLINAPASVLAPSDVDIPLQLKGISVDQLGFVRIHDIQPVMQLEHHHHHH”, with “not failed”.
Regarding “MGKENLYVVLPSYNEEANIGKLINEWNVQFKDLEARGIKLEIIIVNDGSTDNTLAVAEAFSKHNDNVVVIDHGVNKGLGEGLNTGINYVLSQKQKGYMCLMDGDMTHEPKYIFSMLDKLQEEKLDCVIASRYRRGAKVEGLSLFRKFLSFGARVLYTIRLGIPNVRDYTCGYRLYKTSVLEKLHKVYGKRIVKETGFACMMELIVKVSKENFKIGEVPFVLKYQLKGGESKMKVGKTIKRSLLLLRVYKLEHHHHHH”, the protein production entry is recorded as “not failed”.
For the sequence “MEYTTLAVLAGLPEDPHGAVGLPIYAVAAYGFKTLEEGQERFATGEGYVYARQKDPTAKALEERLKALEGALEAVVLASGQAATFAALLALLRPGDEVVAAKGLFGQTIGLFGQVLSLMGVTVRYVDPEPEAVREALSAKTRAVFVETVANPALLVPDLEALATLAEEAGVALVVDNTFGAAGALCRPLAWGAHVVVESLTKWASGHGSVLGGAVLSRETELWRNYPQFLQPDLKGQIPWEALRARCFPERVRTLGLSLCGMALSPFNAYLLFQGLETVALRVARMSETARFLAERLQGHPKVKALRYPGLPEDPAHRNARKYLASGGPILTLDLGDLERASRFLGAIRLLKAANLGDARTLLVHPWTTTHSRLKEEARLQAGVTPGLVRVSVGLEDPLDLLALFEEALEAV”, the protein production result is on record as “not failed”.
For “MAEKLLHTAESDAGIGSWVLHMESGRLEWSQAVHDIFGTDSATFDATEDAYFQRVHPDDRARVRRELDRHVLGDRPFDVEYRIVRPDGQVRELLERNHIQRQASGQVDHLWGTVIDMTEHKQLKRQLQLSQLAVEHCSEGIAIADEGLDWLYVNPALARMGGLTMADPSQLSGLFMAPGVEARLEREALRELLDASGAWQGELLLARRGAAPLPVLASATRLRDEDGRLLSVWVVSDISGMKESERRLHALAFFDGLTGLANRALFGERLRWHLQNEPAGGRLAILFLDLNGFKQVNDLLGHEAGDQVLREVARRLQAGCRPGELAARWGGDEFAVLLPGVADDAVLAARLRELREAARAERWGGGRWLRVSASLGAAVYPESAEDAERLIQLADRAMYRAKSEGGGQVWLHDGGGLRTLAGADCGA”, the protein production entry is “failed”.
Then “MSLAEKIKVLIVDDQVTSRLLLGDALQQLGFKQITAAGDGEQGMKIMAQNPHHLVISDFNMPKMDGLGLLQAVRANPATKKAAFIILTAQGDRALVQKAAALGANNVLAKPFTIEKMKAAIEAVFGALK”, with “not failed”; and “MNDFSCPAIAFPSFLNPVIVHLGPIALYWYGLGYVVGILFVWWYAQKLLKKQSLWYANHPPMDKEKIGDFVVWSAISIVVGGRLGQVLVWDPIYYFSHPTAIITIWNGGMSFHGGLIGITIAMIWFARKNNIKIRAMFDIIAIGAPIGIGIVRICNFINQELWGNVTTHPWAVCFPLDPYYLPRHPSQLYEALMEGFLLFVILFILTFAFKALKRPGTVSGIFIIGYAIARSISEIYRAPQEDPEWFSTLFHSTGFTYGMALSLPMLFLGFYLLFQAFKDESTKNGHTQTKN”, with “failed”.
